# Laboratory results taken from article PMC5076370.
# Key:
# [1] = target: active GoxA with mature CTQ (Marinomonas mediterranea); experiment: SEC
# [2] = target: GoxA precursor protein lacking CTQ (Marinomonas mediterranea); experiment: SEC
Substance,stoichiometry N [1],stoichiometry N (GoxB per GoxA precursor) [2]
active GoxA with mature CTQ (enzyme),2,–
GoxB (enzyme),–,1
